Source: US20260139026A1 (published 2026)

Legend:
[1] = target: T1, PIK3CA H1047L peptide on HLA-A*03:01 (human); assay: multimer staining
T1 peptide: ALHGGWTTK

[2] = target: T2, PIK3CA H1047L (10-mer) peptide on HLA-A*03:01 (human); assay: cytokine release
T2 peptide: DALHGGWTTK

[3] = target: T3, PIK3CA H1047L (8-mer) peptide on HLA-A*03:01 (human); assay: cytokine release
T3 peptide: LHGGWTTK

Measured: binding result

B1: 1022T8 (TCR, V domains shown)
Valpha: GDSVTQMEGPVTLSEEAFLTINCTYTATGYPSLFWYVQYPGEGLQLLLKATKADDKGSNKGFEATYRKETTSFHLEKGSVQVSDSAVYFCALTVGGSYIPTFGRGTSLIVHP
Vbeta: DTEVTQTPKHLVMGMTNKKSLKCEQHMGHRAMYWYKQKAKKPPELMFVYSYEKLSINESVPSRFSPECPNSSLLNLHLHALQPEDSALYLCASSQGGQGWRETQYFGPGTRLLVL
recognises: [1] | [2] | [3]
